Reference: the Immune Epitope Database (IEDB)

What was measured:
Experiment in all cases: IEDB peptide-MHC binding, purified MHC/competitive/fluorescence; filed as Kd, often an IC50 or EC50 that approximates it; ≥ and ≤ were set here for values at or beyond the usual limits of such assays
Conditions in all cases: source organism: Cryptosporidium parvum Iowa II
HLA-A*01:01 = target: HLA-A*01:01
HLA-A*30:02 = target: HLA-A*30:02
HLA-B*07:02 = target: HLA-B*07:02
HLA-B*08:01 = target: HLA-B*08:01
HLA-B*27:05 = target: HLA-B*27:05
HLA-B*44:02 = target: HLA-B*44:02
HLA-B*58:01 = target: HLA-B*58:01

Measured: Kd

TVFRNQNRV
≥ 5 µM: all assays above
